According to IntAct's records for PubMed 16810321:

B1: bZIP transcription factor 53 (Arabidopsis thaliana (Mouse-ear cress)), Q9LZP8 (parent)
chain: MGSLQMQTSPESDNDPRYATVTDERKRKRMISNRESARRSRMRKQKQLGDLINEVTLLKNDNAKITEQVDEASKKYIEMESKNNVLRAQASELTDRLRSLNSVLEMVEEISGQALDIPEIPESMQNPWQMPCPMQPIRASADMFDC
partner: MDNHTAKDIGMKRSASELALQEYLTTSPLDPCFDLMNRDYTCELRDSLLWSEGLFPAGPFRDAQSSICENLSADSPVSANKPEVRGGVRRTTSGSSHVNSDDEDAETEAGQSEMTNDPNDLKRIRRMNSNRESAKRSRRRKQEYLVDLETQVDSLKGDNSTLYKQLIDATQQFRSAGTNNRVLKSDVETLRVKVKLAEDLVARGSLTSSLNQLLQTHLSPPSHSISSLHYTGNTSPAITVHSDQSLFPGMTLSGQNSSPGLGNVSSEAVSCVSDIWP
B2: bZIP transcription factor 53 (Arabidopsis thaliana (Mouse-ear cress)), Q9LZP8 (parent)
chain: B1 chain
partner: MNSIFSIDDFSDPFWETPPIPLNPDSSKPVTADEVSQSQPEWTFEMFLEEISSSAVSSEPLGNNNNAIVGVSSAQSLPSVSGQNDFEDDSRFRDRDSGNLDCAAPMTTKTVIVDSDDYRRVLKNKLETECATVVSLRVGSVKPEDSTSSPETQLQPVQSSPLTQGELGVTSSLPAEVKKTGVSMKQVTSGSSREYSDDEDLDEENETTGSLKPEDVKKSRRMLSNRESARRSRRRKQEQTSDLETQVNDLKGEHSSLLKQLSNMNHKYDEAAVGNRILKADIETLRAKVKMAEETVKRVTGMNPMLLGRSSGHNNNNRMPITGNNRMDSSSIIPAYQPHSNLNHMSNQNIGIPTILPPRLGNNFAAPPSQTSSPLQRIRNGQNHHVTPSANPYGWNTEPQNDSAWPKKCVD

Variants of: B1
Conditions: with bzip9_arath BZIP9, Q9FUD3

effect of a mutation on the interaction	Variant
disrupting interaction	MGSLQMQTSPESDNDPRYATVTDERKRKRMISNRESARRSRMRKQKQLGDPINEVTLLKNDNAKITEQVDEASKKYIEMESKNNVLRAQASELTDRLRSLNSVLEMVEEISGQALDIPEIPESMQNPWQMPCPMQPIRASADMFDC [L51P]
disrupting interaction	MGSLQMQTSPESDNDPRYATVTDERKRKRMISNRESARRSRMRKQKQLGDLINEVTLLKNDNAKITEQVDEPSKKYIEMESKNNVLRAQASELTDRLRSLNSVLEMVEEISGQALDIPEIPESMQNPWQMPCPMQPIRASADMFDC [A72P]

Variants of: B2
Conditions: with bzp10_arath BZIP10, O22763

effect of a mutation on the interaction	Variant
disrupting interaction	MGSLQMQTSPESDNDPRYATVTDERKRKRMISNRESARRSRMRKQKQLGDPINEVTLLKNDNAKITEQVDEASKKYIEMESKNNVLRAQASELTDRLRSLNSVLEMVEEISGQALDIPEIPESMQNPWQMPCPMQPIRASADMFDC [L51P]
disrupting interaction	MGSLQMQTSPESDNDPRYATVTDERKRKRMISNRESARRSRMRKQKQLGDLINEVTLLKNDNAKITEQVDEPSKKYIEMESKNNVLRAQASELTDRLRSLNSVLEMVEEISGQALDIPEIPESMQNPWQMPCPMQPIRASADMFDC [A72P]
